Assay results taken from US20210324099A1 (Chugai, published 2021).

T1: hFcgRIIaH (human, UniProt P12318 34-217)
T1 construct: extracellular domain; also called human FcγRIIa type H (H131)
T1 sequence (looked up): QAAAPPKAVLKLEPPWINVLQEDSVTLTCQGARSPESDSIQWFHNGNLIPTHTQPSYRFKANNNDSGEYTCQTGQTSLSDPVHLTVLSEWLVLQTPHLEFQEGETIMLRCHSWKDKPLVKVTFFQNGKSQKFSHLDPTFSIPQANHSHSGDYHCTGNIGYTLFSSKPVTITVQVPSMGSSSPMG

T2: hFcgRIIb (human, UniProt P31994 43-217)
T2 construct: extracellular domain; also called human FcγRIIb
T2 sequence (looked up): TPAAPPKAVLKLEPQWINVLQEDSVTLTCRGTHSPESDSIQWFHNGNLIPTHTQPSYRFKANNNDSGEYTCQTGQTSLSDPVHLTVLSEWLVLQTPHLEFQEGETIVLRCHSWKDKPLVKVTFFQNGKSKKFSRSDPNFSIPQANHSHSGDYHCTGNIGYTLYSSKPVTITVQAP

T3: hFcgRIIaR (human, UniProt P12318 34-217)
T3 construct: extracellular domain; also called human FcγRIIa type R (R131)
T3 sequence (looked up): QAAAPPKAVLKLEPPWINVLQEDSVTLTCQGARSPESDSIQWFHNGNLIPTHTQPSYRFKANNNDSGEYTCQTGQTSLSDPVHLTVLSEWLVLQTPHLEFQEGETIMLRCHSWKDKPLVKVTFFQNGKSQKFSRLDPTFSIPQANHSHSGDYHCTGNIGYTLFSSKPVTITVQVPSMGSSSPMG

B1: A375-SCF039a/B167-Lamlib (antibody, human IgG1, lambda)
heavy: EVQLVESGGGLVKPGGSLRLSCAASGFTFSTFTMNWVRQAPGKGLEWVSSISSKSTYIEYADSFKVRFTISRDNAKNSLYLQMNSLRAEDTAVYYCARYGAKNFLNWVFDYWGQGTLVTVSSASTKGPSVFPLAPSSKSTSGGTAALGCLVKDYFPEPVTVSWNSGALTSGVHTFPAVLQSSGLYSLSSVVTVPSSSLGTQTYICNVNHKPSNTKVDKRVEPKSCDKTHTCPPCPAPELWNGPSVFLFPPKPKDTLMISRTPEVTCVVVDVSDEDPEVKFNWYVDGVEVHNAKTKPREELYNSTYRVVSVLTVLHQDWLNGKEYKCKVSNTALPKPIEKTISKAKGQRREPQVYTLPPSREEMTKNQVSLTCLVKGFYPSDIAVEWESNGQPENNYKTTPPVLDSDGSFFLYSKLTVDKSRWQQGNVFSCSVMHEALHNHYTQKSLSLSP
light: QSALTQPPSASGSPGQTVTISCTGTRYDVGYYEYVSWYQQHPGKAPKLMIYETSKRLSGVPDRFSGSKSGNTASLTVSGLQAEDEADYYCSSYRYEHQVSFGGGTKLTVLGQPKAAPSVTLFPPSSEELQANKATLVCLISDFYPGAVTVAWKADSSPVKAGVETTTPSKQSNNKYAASSYLSLTPEQWKSHRSYSCQVTHEGSTVEKTVAPTECS
B2: A375-SCF040/B167-Lamlib (antibody, human IgG1, lambda)
heavy: EVQLVESGGGLVKPGGSLRLSCAASGFTFSTFTMNWVRQAPGKGLEWVSSISSKSTYIEYADSFKVRFTISRDNAKNSLYLQMNSLRAEDTAVYYCARYGAKNFLNWVFDYWGQGTLVTVSSASTKGPSVFPLAPSSKSTSGGTAALGCLVKDYFPEPVTVSWNSGALTSGVHTFPAVLQSSGLYSLSSVVTVPSSSLGTQTYICNVNHKPSNTKVDKKVEPKSCDKTHTCPPCPAPELWNGPSVFLFPPKPKDTLMISRTPEVTCVVVDVSDEDPEVKFNWYVDGVEVHNAKTKPREELYNSTYRVVSVLTVLHQDWLNGKEYKCKVSNTALPKPIEKTISKAKGQPREPQVYTLPPSREEMTKNQVSLTCLVKGFYPSDIAVEWESNGQPENNYKTTPPVLDSDGSFFLYSKLTVKKSRWQQGNVFSCSVMHEALHNHYTQKSLSLSP
light: QSALTQPPSASGSPGQTVTISCTGTRYDVGYYEYVSWYQQHPGKAPKLMIYETSKRLSGVPDRFSGSKSGNTASLTVSGLQAEDEADYYCSSYRYEHQVSFGGGTKLTVLGQPKAAPSVTLFPPSSEELQANKATLVCLISDFYPGAVTVAWKADSSPVKAGVETTTPSKQSNNKYAASSYLSLTPEQWKSHRSYSCQVTHEGSTVEKTVAPTECS
notes: copies: 2 + 2

Experiments:
human FcRn = human FcRn (human, UniProt P55899 24-290; P61769 21-119, limits assumed); experiment: SPR 25C pH 6.0, steady state;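 also: antibody captured on chip via anti-human Fab-lambda ligand, human FcRn injected as analyte in 50 mM phosphate buffer with 150 mM NaCl and P20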
Sequence of human FcRn (P55899 24-290 limits assumed, chain 1 of 2): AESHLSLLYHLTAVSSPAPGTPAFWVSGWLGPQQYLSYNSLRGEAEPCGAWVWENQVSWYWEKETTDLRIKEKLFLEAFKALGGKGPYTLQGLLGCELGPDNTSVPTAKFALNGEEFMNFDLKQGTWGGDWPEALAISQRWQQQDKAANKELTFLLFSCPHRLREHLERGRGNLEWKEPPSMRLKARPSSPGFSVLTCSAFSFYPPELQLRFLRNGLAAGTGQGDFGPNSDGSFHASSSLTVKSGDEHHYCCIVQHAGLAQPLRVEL
Sequence of human FcRn (P61769 21-119 limits assumed, chain 2 of 2): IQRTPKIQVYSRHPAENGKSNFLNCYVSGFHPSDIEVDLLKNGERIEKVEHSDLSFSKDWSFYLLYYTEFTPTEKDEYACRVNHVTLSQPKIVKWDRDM
Description: Biacore T200 (GE Healthcare) was used to assess the binding activity to human FcRn. Measurement was performed at 25° C. using 50 mM phosphate, 150 mM NaCl, 0.05 w/v %-P20, pH 6.0 as buffer. […] About 400 RU of antibody was captured using a sensor chip immobilized with CaptureSelect™ Human Fab-lambda Kinetics Biotin Conjugate (Thermo Fisher Scientific) as a molecule for ligand capturing, followed by the binding of human FcRn diluted in measuring buffer. The activity of the respective antibodies to bind FcRn was assessed by calculating KD (mol/L) by the steady-state model using Biacore T200 Evaluation Software 2.0.

hFcgRIIaH [1] = molecular target: T1, hFcgRIIaH; experiment: SPR 25C
hFcgRIIb [2] = molecular target: T2, hFcgRIIb; experiment: SPR 25C
hFcgRIIIaV [3] = molecular target: T4, hFcgRIIIaV (human, UniProt P08637 17-208); experiment: SPR 25C
T4 construct: extracellular domain; also called human FcγRIIIa allotype V158
T4 sequence (P08637 17-208 F176V): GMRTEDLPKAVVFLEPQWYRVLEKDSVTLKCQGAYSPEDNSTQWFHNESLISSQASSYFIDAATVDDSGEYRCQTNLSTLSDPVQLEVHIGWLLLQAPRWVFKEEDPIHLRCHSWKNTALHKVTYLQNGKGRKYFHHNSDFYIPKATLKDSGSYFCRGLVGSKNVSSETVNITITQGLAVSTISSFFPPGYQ

hFcgRIIIaF [4] = molecular target: T5, hFcgRIIIaF (human, UniProt P08637 17-208); experiment: SPR 25C
T5 construct: extracellular domain; also called human FcγRIIIa allotype F158
T5 sequence (P08637 17-208): as the sequence (P08637 17-208 F176V) above, with V160F counted along it

hFcgRIIaR [5] = molecular target: T3, hFcgRIIaR; experiment: SPR 25C
hFcgRIa [6] = molecular target: T6, hFcgRIa (human, UniProt P12314 16-292); experiment: SPR 25C
T6 construct: extracellular domain; also called human FcγRIa; FcγRI
T6 sequence (P12314 16-292): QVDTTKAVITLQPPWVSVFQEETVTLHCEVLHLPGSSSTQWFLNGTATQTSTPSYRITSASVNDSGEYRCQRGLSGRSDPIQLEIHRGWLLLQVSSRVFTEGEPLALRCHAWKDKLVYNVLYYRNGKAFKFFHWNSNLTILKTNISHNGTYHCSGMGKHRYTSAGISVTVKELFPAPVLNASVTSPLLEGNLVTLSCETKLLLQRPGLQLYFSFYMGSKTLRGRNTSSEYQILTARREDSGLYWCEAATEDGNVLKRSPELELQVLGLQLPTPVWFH

hFcgRIIaH [7] = molecular target: T1, hFcgRIIaH; experiment: SPR 25C; relative to A375-G1T3/B167-Lamlib;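 also: SPR with antibody captured on an anti-human Fab-lambda chip, human FcγR analyte at 8 nM for FcγRIa or 1000 nM for the others, pH 7.4, FcγR RU per captured antibody unit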
Description: (§1) Biacore T200 (GE Healthcare) was used to evaluate the binding activity to the respective human Fcγ receptor (hereafter referred to as FcγR). Measurement was performed at 25° C. using 50 mM phosphate, 150 mM NaCl, 0.05 w/v %-P20, pH 7.4 as buffer. About 1000 RU of antibody was captured using a sensor chip immobilized with CaptureSelect™ Human Fab-lambda Kinetics Biotin Conjugate (Thermo Fisher Scientific) as a molecule for ligand capturing. Human FcγR was diluted to 8 nM for FcγRIa and 1000 nM for other FcγR in the measurement buffer, and it was interacted to the captured antibody. The binding activity of each antibody to FcγR was assessed by calculating the binding amount of FcγR (RU) per unit amount of antibody using Biacore T200 Evaluation Software 2.0.

hFcgRIIb [8] = molecular target: T2, hFcgRIIb; experiment: SPR 25C; relative to A375-G1T3/B167-Lamlib;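 also: SPR with antibody captured on an anti-human Fab-lambda chip, human FcγR analyte at 8 nM for FcγRIa or 1000 nM for the others, pH 7.4, FcγR RU per captured antibody unit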
Description: as §1

hFcgRIIIaV [9] = molecular target: T4, hFcgRIIIaV; experiment: SPR 25C; relative to A375-G1T3/B167-Lamlib;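 also: SPR with antibody captured on an anti-human Fab-lambda chip, human FcγR analyte at 8 nM for FcγRIa or 1000 nM for the others, pH 7.4, FcγR RU per captured antibody unit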
Description: as §1

hFcgRIIIaF [10] = molecular target: T5, hFcgRIIIaF; experiment: SPR 25C; relative to A375-G1T3/B167-Lamlib;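 also: SPR with antibody captured on an anti-human Fab-lambda chip, human FcγR analyte at 8 nM for FcγRIa or 1000 nM for the others, pH 7.4, FcγR RU per captured antibody unit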
Description: as §1

hFcgRIIaR [11] = molecular target: T3, hFcgRIIaR; experiment: SPR 25C; relative to A375-G1T3/B167-Lamlib
Description: as §1

hFcgRIa [12] = molecular target: T6, hFcgRIa; experiment: SPR 25C; relative to A375-G1T3/B167-Lamlib
Description: as §1
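For binding per 1RU of antibody in this document: biacore SPR with antibody captured on an anti-human Fab lambda chip, human FcγR injected at 1000 nM (FcγRIa at 8 nM) in pH 7.4 phosphate buffer.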

Row | Binder | Kd (human FcRn) | binding per 1RU of antibody (hFcgRIIaH [1]) | binding per 1RU of antibody (hFcgRIIb [2]) | binding per 1RU of antibody (hFcgRIIIaV [3]) | binding per 1RU of antibody (hFcgRIIIaF [4]) | binding per 1RU of antibody (hFcgRIIaR [5]) | binding per 1RU of antibody (hFcgRIa [6]) | relative binding amount (hFcgRIIaH [7]) | relative binding amount (hFcgRIIb [8]) | relative binding amount (hFcgRIIIaV [9]) | relative binding amount (hFcgRIIIaF [10]) | relative binding amount (hFcgRIIaR [11]) | relative binding amount (hFcgRIa [12])
1 | B1 | 1110 nM | 0.0542 RU | 0.054 RU | 0.0013 RU | 0.0012 RU | 0.0554 RU | 0.0018 RU | 0.96 | 4.93 | 0.02 | 0.06 | 1.2 | 0.02
2 | B2 | 1460 nM | 0.0454 RU | 0.0465 RU | 0.0013 RU | 0.001 RU | 0.0446 RU | 0.0016 RU | 0.8 | 4.24 | 0.02 | 0.05 | 0.96 | 0.02
